Laboratory results as given in the DeepSol protein solubility set.

Test: soluble on expression in E. coli; label from the status in PepcDB or PDB records

**Q.** For “MGSDKIHHHHHHMSDIPYQTIDTRALHRFAQPDRIAPAMYHDPALFEAELDRIFYRTWIWVAHDSELPNPGDFITTTIGRQPVIVVRDKTGEINVLQNRCRHRGATVCESHKGNAKGFTCPYHSWSYALDGTLRALPYGDGYEGVCEKGDLPLVKLRVGVYQGLIFASFNDDIEPLEDFLGGAKPWIDLFMKQGAGYPIKANGEHKFKFKGNWKIQLENTTDLYHFPVVHKSWMKSIDDETAAAITSFMTSEHAFCRALGNGHSLAVLMPELIDLDEDDGAPLPERFAPLAATLAERHAPDEVRRIVRSLLGVGFNLNLFPNLALSMAFFRVLRPISANETEIRHVALAMDGGPDEANRERLRIHEHFQGPFGFGSPDDAEAWERVQRGAHAGPDVPILVNRGLNRETTAANGEKTAHATDETGMREAYQQWRKLMEQA”, which “soluble on expression in E. coli” value is on record?
**A.** not soluble

**Q.** For “MDIKVVKGSITEVDADVIVNPANSRGLMGGGVAVVIKRLGGEEIEREAVEKAPIPVGSAVLTTAGKLKFKGVIHAPTMEEPAMPSSEEKVRKATRAALELADKECFKIVAIPGMGTGVGGVPKEVAARAMVEEIRKFEPKCLEKVILVDIDEEMVEAWEKVLGLRLEHHHHHH”, which “soluble on expression in E. coli” value is on record?
**A.** soluble

**Q.** With “MSLKQPTSTTVTRTDYLKHKVKVPKHPKRIVASYLEDDLVALGIKPVVQWSVKNGSGTQAYLKEQLKGVPLIDYSLPYEAVTKAKPDLILIGTSSAVANGKYAQYNKIAPTYVVKNGTTVTWRQTFLDVAKVVNRQAKAKKVLAKYDKQVQTTRQALKKSGQHKVAVLWVTNNTAYMVNDNSASGALLYQDLQLGEPSLVKQVSKSATADWSAVSLEKLAKLDADDIFLVNSQKSASLFKDPLWKNIKAVKNNHLYQYGDSSSWQYSGPIAYSQMIDMVKTDLLKEGHHHHHH” as the sequence, how does the “soluble on expression in E. coli” value read?
**A.** soluble

**Q.** Which “soluble on expression in E. coli” value does the source give for “MLEEDKIKGMFNPKIWDKTFQDGLKKEIEDSQPYNWGTIHELVNDDLLRAVRKEIETEIHFTKKETDIYRVNQSGDLANLSGLDWDDLSRLPNLFKLRQILYSKQYRDFFGYVTKAGKLSGSKTDMSINTYTKGCHLLTHDDVIGSRRISFILYLPDPDRKWKSHYGGGLRLFPSILPNVPHSDPSAKLVPQFNQIAFFKVLPGFSFHDVEEVKVDKHRLSIQGWYHIPQVGEEGYIPGEEEAWVRNNTSTLAQIESNVLEDFEFPKDERNILSFHEVKHFEKMLKGDAGAKTDNTPKESMTSVISDSVKLSEAEFTYLSQYISPEHLSSKGIEKLQKQFVENSSLQIESFLNDDKSELLKKVIKQKELEQECPYHSKDVKAPWKTAIPPHKARYLYIDGKEYRNFQTEADILEALNNNDLPNFQFTKDAIKIISDASGNSRENNFDAELALIDLAVFHKSTIFKKYLALLTSLCPVSEQILIRRFRPGMDFTLATKCRFNELLKSNPDIIDAVLEGTLCLTPSAGWESGELGGYELYMMDDDEDNKQYLKEDVEDASVYRADDSGDSVLINDPPAWNTFNLVLRDESVLEFVKYVSWSAKSSRWDVKMKWDVKSCDEDGQEDEALEHHHHHH” here?
**A.** soluble

**Q.** For “MSKKIRTEAVDYLFDAILSLKDKEECYTFFEDICTINELLSLSQRFEVAKMLREQKTYLEIAEKTGASTATISRVNRSLNYGNDGYDMVFERMEK”, which “soluble on expression in E. coli” value is on record?
**A.** not soluble

**Q.** Which “soluble on expression in E. coli” value does the source give for “PDFTPQKFKEKTAEQLRVLQASFLNSSVLTDEELNRLRAQTKLTRREIDAWFTEKKKSKALKEEKMEIDESNAGSS” here?
**A.** soluble

**Q.** With “MKPPPRRRAAPARYLGEVTGPATWSAREKRQLVRLLQARQGQPEPDATELARELRGRSEAEIRVFLQQLKGRVAREAIQKVHPGGLQGPRRREAQPPAPIEVWTDLAEKITGPPEEAVAVAFSQVLTIAATEPVTLLHSKPPKPTQARGKPLLLSAPGGQEDPAPEIPSSAPAAPSSAPRTPDPAPEKPSESSAGPSTEEDFAVDFEKIYKYLSSVSRSGRSPELSAAESAVVLDLLMSLPEELPLLPCTALVEHMTETYLRLTAPQPIPAGGSLGPAAEGVGAGSKAPEETPPATEKAEHSELKSPWQAAGICPLNPFLVPLELLGRAATPAR” as the sequence, how does the “soluble on expression in E. coli” value read?
**A.** soluble
